We go through 18 molecules from US20100009907A1, “Glucagon-Like Peptides and Uses Thereof” (AMYLIN PHARMACEUTICALS, INC., priority 2006, published 2010).

T1: GLP-1 receptor (endogenous, RINm5F cell membranes; rat thyroid carcinoma 6-23 clone 6 cells) (rat, UniProt P32301 22-463)
T1 sequence (looked up): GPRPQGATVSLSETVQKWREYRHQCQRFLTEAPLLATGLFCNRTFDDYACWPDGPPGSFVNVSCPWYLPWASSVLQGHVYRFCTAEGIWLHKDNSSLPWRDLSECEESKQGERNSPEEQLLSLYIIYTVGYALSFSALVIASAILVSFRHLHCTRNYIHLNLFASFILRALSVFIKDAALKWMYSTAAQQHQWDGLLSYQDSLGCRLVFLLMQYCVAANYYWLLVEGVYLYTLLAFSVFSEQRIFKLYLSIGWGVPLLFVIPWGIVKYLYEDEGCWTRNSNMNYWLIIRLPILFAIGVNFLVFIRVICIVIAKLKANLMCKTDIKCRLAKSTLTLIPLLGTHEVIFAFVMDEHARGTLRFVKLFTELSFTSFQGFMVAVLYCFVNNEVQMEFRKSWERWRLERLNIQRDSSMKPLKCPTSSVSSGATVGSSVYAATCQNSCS

B1: SEQ ID NO 49 (peptide)
peptide: HADGTYTSDVSSYLQDQAAKDFITWLKSGQPKPDAVETRSVDTL
notes: also called nmGLP-1 peptide; naturally occurring nmGLP-1
B2: SEQ ID NO 2 (peptide)
peptide: HAEGTYTNDVTEYLEEKAAKEFIEWLIKGKPKKIRYS
notes: as for B1
B3: SEQ ID NO 51 (peptide)
peptide: YADAPYISDVYSYLQDQVAKKWLKSGQD
notes: as for B1
B4: SEQ ID NO 52 (peptide)
peptide: HADGTFTNDMTSYLDAKAARDFVSWLARSDKS
notes: as for B1
B5: SEQ ID NO 48 (peptide)
peptide: HADGTYTSDVSSYLQDQAAKDFITWLKSGQPKPDAVET
notes: as for B1
B6: SEQ ID NO 1 (peptide)
peptide: HAEGTFTSDVTQQLDEKAAKEFIDWLINGGPSKEIIS-OH
notes: as for B1

Where no end group is shown, it is not given here.

The target of one assay is endogenous GLP-1, calcitonin, and GIP receptors of RINm5f cells. The assay is described as follows: cell-based or functional assay.
Take B1: the GLP/GIP/CT cAMP(RIN) EC50 worked out at 415 nM.
On the same count and under the same terms, with HAEGTFTSDVTQQLDEKAAKEFIDWLINGGPSKEIIS (also called nmGLP-1 analog) [SEQ ID NO 11] the figure was 0.59 nM; with HAEGTYTNDVTEYLEEKAAKEFIEWLINGGPSKEIIS (also called nmGLP-1 analog) [SEQ ID NO 21], 1 nM.
Consider HAEGTYTNDVTEYLEEKAAKEFIEWLIN (also called nmGLP-1 analog) [SEQ ID NO 24], for which the GLP/GIP/CT cAMP(RIN) EC50 came out at 0.85 nM.
As to HAEGTYTNDVTEYLEEKAAKEFIEWLIK (also called nmGLP-1 analog) [SEQ ID NO 25], the GLP/GIP/CT cAMP(RIN) EC50 is 0.53 nM.
On the same count and under the same terms, with HAEGTFTSDVTQQLEEKAAKEFIEWLIKGKPKKIRYS (also called nmGLP-1 analog) [SEQ ID NO 22] the figure was 0.1 nM.
Still for that read-out and setting: with B2 the figure was 0.36 nM; with HGEGTYTNDVTEYLEEKAAKEFIEWLIKGKPKKIRYS (also called nmGLP-1 analog) [SEQ ID NO 26], 0.967 nM; with B3, 971 nM.
Same read-out and setting: with B4 the figure was 382 nM; with B5, 14 nM.
In the case of B6, the GLP/GIP/CT cAMP(RIN) EC50 turned out to be 1.9 nM.
Same read-out and setting: with HAEGTFTSDVTQQLDEKAAKEFIDWLINGGASKEIIS (also called nmGLP-1 analog) [SEQ ID NO 12] the figure was 0.29 nM; with HAEGTFTSDVTQQLDEKAAKEFIDWLINPGSEGIKSI (also called nmGLP-1 analog) [SEQ ID NO 14], 18 nM.

A further assay has as its target T1, GLP-1 receptor (endogenous, RINm5F cell …). Put plainly: cell-based or functional assay.
Turning to HXEGTYTNDVTQFLEEKAAKEFIDWLIKGKPKKQRLS (Abu (2-Aminobutyric acid) at position 2) [SEQ ID NO 53], the “GLP-1 cAMP (6-23) EC50” value turned out to be 0.12 nM.
The same measure, in the same setting: with B2 the figure was 0.82 nM; with HGEGTYTNDVTEYLEEKAAKEFIEWLIKGKPKKIRYS (also called nmGLP-1 analog) [SEQ ID NO 26], 0.16 nM; with B5, 2.34 nM.
Still for that read-out and setting: with B6 the figure was 7.7 nM.
On the same count and under the same terms, with HAEGTFTSDVTQQLDEKAAKEFIDWLINPGSEGIKSI (also called nmGLP-1 analog) [SEQ ID NO 14] the figure was 2.2 nM.

Another assay has the same target. The assay is described as follows: displacement of [125I]GLP-1 from RINm5F cell membranes (GLP RBA). The procedure: GLP-1 receptor binding activity and affinity can be measured using a binding displacement assay in which the receptor source is RINm5F cell membranes, and the ligand is [¹²⁵I]GLP-1. Homogenized RINm5F cell membranes are incubated in 20 mM HEPES buffer with 40,000 cpm [¹²⁵I]GLP-1 tracer, and varying concentrations of test compound for 60 minutes at 23° C. with constant mixing. Reaction mixtures are filtered through glass filter pads presoaked with 0.3% PEI solution and rinsed with ice-cold phosphate buffered saline. Bound counts are determined using a scintillation counter. Binding affinities are calculated using GraphPad Prism software (GraphPad Software, Inc., San Diego, Calif.).
In general terms: Displacement assays read how much labelled ligand stays bound in the presence of the test substance.
In general, IC50 refers to the concentration that inhibits the measured activity by half. Read a high IC50 as lower potency. For B1, the IC50 was 74 nM.
With HAEGTFTSDVTQQLDEKAAKEFIDWLINGGPSKEIIS (also called nmGLP-1 analog) [SEQ ID NO 11], the IC50 is 2.3 nM. Compared with the last molecule, the IC50 is about 32-fold lower.
Still for that read-out and setting: with HXEGTFTSDVTQQLDEKAAKEFIDWLINGGPSKEIIS (dAla at position 2 (a = dAla), also called nmGLP-1 analog) [SEQ ID NO 10] the figure was 1.9 nM.
The molecule HAEGTYTNDVTEYLEEKAAKEFIEWLINGGPSKEIIS (also called nmGLP-1 analog) [SEQ ID NO 21] yielded an IC50 of 2.1 nM.
The same measure, in the same setting: with HAEGTYTNDVTEYLEEKAAKEFIEWLIN (also called nmGLP-1 analog) [SEQ ID NO 24] the figure was 1.3 nM.
For HAEGTYTNDVTEYLEEKAAKEFIEWLIK (also called nmGLP-1 analog) [SEQ ID NO 25], the IC50 is 0.54 nM.
HAEGTFTSDVTQQLEEKAAKEFIEWLIKGKPKKIRYS (also called nmGLP-1 analog) [SEQ ID NO 22]: the IC50 is 0.067 nM.
The molecule B3 showed an IC50 of 111 nM.
The same measure, in the same setting: with B4 the figure was 0.9 nM; with HAEGTFTSDVTQQLDEKAAKEFIDWLINGGASKEIIS (also called nmGLP-1 analog) [SEQ ID NO 12], 8.8 nM.
The same measure, in the same setting: with HXEGTYTNDVTEYLEEKAAKEFIEWLIKGKPKKIRYS (Aib (2-Aminoisobutyric acid) at position 2, also called nmGLP-1 analog) [SEQ ID NO 27] the figure was 0.1 nM.
The same measure, in the same setting: with HXEGTYTNDVTEYLEEKAAKEFIEWLIKGKPKKIRYS (Abu (2-Aminobutyric acid) at position 2, also called nmGLP-1 analog) [SEQ ID NO 28] the figure was 0.067 nM.
